Reference: article PMC9894130, “SV40 T-antigen uses a DNA shearing mechanism to initiate origin unwinding” (Proceedings of the National Academy of Sciences of the …, 2022)

Biological target: the molecule itself
Experiment: cryo-EM structure; T-Ag^131–627 incubated with AMP-PNP in the absence of DNA (apo form); 3D map at 5.6 Å, rigid-body docking of crystal structures of smaller fragments

B1: SV40 large T-Antigen helicase, residues 131-627 (T-Ag^131–627) (domain or fragment)
chain: KVEDPKDFPSELLSFLSHAVFSNRTLACFAIYTTKEKAALLYKKIMEKYSVTFISRHNSYNHNILFFLTPHRHRVSAINNYAQKLCTFSFLICKGVNKEYLMYSALTRDPFSVIEESLPGGLKEHDFNPEEAEETKQVSWKLVTEYAMETKCDDVLLLLGMYLEFQYSFEMCLKCIKKEQPSHYKYHEKHYANAAIFADSKNQKTICQQAVDTVLAKKRVDSLQLTREQMLTNRFNDLLDRMDIMFGSTGSADIEEWMAGVAWLHCLLPKMDSVVYDFLKCMVYNIPKKRYWLFKGPIDSGKTTLAAALLELCGGKALNVNLPLDRLNFELGVAIDQFLVVFEDVKGTGGESRDLPSGQGINNLDNLRDYLDGSVKVNLEKKHLNKRTQIFPPGIVTMNEYSVPKTLQARFVKQIDFRPKDYLKHCLERSEFLLEKRIIQSGIALLLMLIWYRPVAEFAQSIQSRIVEWKERLDKEFSLSVYQKMKFNVAMGIGVLD
notes: Simian Virus 40 large T-Antigen, residues 131-627; lacks the N-terminal DnaJ-homology domain and the extreme C-terminal host-range determination region; holds OBD, ZBD and AAA+ domains; also called J-domain truncated T-Ag; source: expressed in E. coli (details in the SI Appendix)
stoichiometry N: 6
